Measurements taken from patent US20180319872A1 (UNIVERSITY OF MARYLAND BALTIMORE, published 2018).

Columns and labels:
[1] = target: T1, Clostridium difficile toxin B (TcdB) (Clostridium difficile, UniProt P18177 2-2366); test: binding kinetics, method not stated
T1 construct: also called TxB

[2] = target: T1, Clostridium difficile toxin B (TcdB); test: ELISA on plates coated with 1 ug/ml TcdB (TxB), OD450
[3] = target: T2, Clostridium difficile toxin A (TcdA) (Clostridium difficile, UniProt P16154 1-2710); test: binding kinetics, method not stated
T2 construct: also called TxA; rTcdA
T2 sequence (P16154 whole entry): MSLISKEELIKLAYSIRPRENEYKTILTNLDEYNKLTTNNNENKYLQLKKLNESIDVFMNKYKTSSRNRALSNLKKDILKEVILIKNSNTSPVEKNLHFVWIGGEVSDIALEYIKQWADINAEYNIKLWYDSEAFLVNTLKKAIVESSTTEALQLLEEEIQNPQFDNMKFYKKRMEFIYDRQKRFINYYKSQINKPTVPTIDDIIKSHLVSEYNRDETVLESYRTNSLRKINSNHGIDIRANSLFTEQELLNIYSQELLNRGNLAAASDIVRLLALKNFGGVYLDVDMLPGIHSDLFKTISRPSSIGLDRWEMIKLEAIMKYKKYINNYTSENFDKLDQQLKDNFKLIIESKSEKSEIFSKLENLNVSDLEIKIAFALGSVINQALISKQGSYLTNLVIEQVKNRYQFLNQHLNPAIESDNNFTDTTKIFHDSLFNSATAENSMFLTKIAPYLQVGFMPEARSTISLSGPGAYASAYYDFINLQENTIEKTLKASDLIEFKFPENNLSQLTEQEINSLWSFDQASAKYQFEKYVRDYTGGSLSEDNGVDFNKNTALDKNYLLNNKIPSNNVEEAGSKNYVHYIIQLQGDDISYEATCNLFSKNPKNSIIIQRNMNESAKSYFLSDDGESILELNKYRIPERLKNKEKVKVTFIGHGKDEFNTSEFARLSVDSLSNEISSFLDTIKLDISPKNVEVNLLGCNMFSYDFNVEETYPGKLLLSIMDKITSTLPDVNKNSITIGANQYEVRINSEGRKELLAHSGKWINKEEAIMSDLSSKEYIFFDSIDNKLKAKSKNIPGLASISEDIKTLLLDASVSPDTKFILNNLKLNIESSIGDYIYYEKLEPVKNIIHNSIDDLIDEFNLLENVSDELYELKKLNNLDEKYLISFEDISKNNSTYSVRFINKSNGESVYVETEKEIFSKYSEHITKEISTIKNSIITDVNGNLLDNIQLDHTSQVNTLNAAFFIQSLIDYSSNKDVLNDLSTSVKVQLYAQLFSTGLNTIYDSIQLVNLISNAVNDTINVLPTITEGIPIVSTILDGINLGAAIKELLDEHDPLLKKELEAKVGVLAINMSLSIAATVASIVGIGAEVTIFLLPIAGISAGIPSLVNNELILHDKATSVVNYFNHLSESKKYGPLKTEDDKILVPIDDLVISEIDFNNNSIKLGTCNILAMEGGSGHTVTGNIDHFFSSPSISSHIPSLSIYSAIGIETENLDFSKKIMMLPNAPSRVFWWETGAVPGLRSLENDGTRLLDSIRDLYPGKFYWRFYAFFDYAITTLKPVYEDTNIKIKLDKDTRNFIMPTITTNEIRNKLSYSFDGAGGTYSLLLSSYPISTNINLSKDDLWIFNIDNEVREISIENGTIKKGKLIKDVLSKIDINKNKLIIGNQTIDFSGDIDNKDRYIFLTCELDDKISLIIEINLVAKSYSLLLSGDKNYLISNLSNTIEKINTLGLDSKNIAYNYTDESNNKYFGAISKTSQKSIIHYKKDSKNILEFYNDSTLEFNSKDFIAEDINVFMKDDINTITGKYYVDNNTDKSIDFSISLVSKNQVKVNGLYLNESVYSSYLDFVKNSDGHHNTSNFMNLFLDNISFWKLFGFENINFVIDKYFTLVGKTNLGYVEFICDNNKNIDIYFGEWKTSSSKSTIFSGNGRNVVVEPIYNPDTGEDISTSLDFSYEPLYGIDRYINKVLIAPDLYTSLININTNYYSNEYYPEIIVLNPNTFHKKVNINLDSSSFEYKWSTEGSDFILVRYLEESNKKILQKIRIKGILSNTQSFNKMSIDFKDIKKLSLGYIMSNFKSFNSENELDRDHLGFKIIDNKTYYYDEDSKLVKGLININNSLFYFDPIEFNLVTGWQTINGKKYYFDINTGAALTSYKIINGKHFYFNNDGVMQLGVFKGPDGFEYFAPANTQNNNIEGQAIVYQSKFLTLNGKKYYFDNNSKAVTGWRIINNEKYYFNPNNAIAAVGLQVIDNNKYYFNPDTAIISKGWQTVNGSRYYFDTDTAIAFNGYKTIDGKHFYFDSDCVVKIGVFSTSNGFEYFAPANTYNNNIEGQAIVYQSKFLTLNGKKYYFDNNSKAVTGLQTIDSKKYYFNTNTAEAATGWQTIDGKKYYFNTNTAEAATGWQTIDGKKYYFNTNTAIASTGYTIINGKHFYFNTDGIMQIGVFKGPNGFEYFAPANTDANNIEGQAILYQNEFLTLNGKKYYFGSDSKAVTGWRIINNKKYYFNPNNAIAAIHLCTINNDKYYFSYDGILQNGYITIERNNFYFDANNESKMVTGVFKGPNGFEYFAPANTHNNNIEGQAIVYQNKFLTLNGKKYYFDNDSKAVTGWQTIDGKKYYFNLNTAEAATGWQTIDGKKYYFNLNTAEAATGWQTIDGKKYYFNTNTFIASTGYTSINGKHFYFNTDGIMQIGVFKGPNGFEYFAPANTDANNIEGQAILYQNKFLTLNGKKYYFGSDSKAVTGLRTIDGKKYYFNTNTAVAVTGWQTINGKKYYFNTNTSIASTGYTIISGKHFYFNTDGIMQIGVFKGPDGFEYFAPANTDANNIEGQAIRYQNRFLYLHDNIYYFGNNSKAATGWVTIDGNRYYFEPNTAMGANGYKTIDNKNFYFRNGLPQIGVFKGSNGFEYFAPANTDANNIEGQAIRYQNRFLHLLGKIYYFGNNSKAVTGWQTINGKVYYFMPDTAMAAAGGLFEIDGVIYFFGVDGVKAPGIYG

T1 sequence (P18177 2-2366 limits assumed): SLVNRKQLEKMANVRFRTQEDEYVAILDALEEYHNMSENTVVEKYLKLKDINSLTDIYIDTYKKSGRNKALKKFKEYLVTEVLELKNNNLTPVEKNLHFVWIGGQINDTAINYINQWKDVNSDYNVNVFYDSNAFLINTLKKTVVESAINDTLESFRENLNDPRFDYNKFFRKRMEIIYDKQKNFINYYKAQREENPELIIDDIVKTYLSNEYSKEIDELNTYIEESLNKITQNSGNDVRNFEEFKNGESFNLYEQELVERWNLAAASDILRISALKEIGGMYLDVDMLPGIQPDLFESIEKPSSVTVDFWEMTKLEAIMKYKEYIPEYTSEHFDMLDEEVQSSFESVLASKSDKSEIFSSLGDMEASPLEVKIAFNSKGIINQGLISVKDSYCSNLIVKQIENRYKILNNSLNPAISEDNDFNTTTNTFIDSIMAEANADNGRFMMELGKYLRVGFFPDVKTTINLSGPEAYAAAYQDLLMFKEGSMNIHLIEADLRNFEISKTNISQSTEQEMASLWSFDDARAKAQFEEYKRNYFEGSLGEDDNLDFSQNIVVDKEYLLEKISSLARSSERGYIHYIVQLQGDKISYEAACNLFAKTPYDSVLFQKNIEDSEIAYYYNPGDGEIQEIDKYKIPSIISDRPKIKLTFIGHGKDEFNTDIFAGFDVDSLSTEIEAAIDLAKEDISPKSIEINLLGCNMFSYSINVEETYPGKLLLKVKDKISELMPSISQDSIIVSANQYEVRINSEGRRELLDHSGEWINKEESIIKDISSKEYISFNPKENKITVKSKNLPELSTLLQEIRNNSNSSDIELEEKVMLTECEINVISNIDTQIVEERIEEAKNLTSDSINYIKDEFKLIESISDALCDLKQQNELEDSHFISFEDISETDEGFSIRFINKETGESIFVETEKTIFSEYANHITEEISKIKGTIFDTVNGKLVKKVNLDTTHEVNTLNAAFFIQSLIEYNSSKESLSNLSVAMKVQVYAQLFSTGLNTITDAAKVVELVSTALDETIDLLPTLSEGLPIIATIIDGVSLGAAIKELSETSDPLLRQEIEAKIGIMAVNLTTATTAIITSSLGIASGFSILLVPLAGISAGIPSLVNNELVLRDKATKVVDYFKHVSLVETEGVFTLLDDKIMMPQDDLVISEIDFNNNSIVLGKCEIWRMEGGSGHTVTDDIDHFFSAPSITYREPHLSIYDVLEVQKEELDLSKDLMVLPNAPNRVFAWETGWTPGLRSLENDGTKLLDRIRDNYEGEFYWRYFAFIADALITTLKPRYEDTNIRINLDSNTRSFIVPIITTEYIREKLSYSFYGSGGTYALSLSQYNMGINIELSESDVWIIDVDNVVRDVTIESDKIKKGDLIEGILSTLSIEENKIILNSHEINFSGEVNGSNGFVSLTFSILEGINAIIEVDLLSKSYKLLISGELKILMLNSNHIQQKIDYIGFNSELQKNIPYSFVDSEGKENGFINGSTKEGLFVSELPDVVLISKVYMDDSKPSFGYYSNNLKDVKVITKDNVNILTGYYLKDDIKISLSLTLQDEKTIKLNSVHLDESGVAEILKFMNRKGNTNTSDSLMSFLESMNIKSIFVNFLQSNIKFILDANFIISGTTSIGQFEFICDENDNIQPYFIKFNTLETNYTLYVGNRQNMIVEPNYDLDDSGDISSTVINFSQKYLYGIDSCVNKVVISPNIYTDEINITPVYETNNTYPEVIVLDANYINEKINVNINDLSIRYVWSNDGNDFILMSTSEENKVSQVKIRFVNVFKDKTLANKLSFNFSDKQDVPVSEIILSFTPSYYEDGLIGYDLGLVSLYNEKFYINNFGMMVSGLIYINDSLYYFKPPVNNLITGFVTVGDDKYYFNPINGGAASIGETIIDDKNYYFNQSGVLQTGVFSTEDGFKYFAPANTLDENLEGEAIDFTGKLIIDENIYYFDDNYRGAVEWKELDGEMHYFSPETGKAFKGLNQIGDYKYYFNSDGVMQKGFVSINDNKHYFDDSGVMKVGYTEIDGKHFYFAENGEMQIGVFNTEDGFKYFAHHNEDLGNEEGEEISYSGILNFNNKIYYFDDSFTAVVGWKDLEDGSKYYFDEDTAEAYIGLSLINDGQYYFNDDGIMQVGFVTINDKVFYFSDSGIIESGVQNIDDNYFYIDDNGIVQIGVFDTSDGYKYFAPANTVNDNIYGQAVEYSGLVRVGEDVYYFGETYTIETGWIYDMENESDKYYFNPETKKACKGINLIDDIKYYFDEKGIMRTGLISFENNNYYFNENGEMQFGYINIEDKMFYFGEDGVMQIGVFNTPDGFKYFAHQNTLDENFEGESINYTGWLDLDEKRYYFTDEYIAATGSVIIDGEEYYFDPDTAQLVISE

| Binder | Kd [1] [nM] | koff [1] [s⁻¹] | kon [1] [M⁻¹ s⁻¹] | EC50 (read off the curve) [2] [µg/mL] | Kd [3] [nM] | koff [3] [s⁻¹] | kon [3] [M⁻¹ s⁻¹] |
| --- | --- | --- | --- | --- | --- | --- | --- |
| VHH peptide monomer 5D (VHH) VHH: QVQLVESGGGLVQPGGSLRLSCEASGFTLDYYGIGWFRQPPGKEREAVSYISASARTILYADSVKGRFTISRDNAKNAVYLQMNSLKREDTAVYYCARRRFSASSVNRWLADDYDVWGRGTQVAVSS | 0.65 | 0.000994 | 1.52e+06 | – | – | – | – |
| VHH peptide monomer E3 (VHH, also called VHH E3) VHH: QVQLVESGGGLVQTGGSLRLSCASSGSIAGFETVTWSRQAPGKSLQWVASMTKTNNEIYSDSVKGRFIISRDNAKNTVYLQMNSLKPEDTGVYFCKGPELRGQGIQVTVSS | 0.03 | 9.4e-05 | 2.95e+06 | ~0.02 | – | – | – |
| ABAB binding agent (AH3/5D/AA6/E3, tetra-specific tetrameric VHH) (designed binder, also called r-ABAB; recombinant ABAB) QVQLVETGGGLVQPGGSLRLSCAASGFTLDYSSIGWFRQAPGKEREGVSCISSSGDSTKYADSVKGRFTTSRDNAKNTVYLQMNSLKPDDTAVYYCAAFRATMCGVFPLSPYGKDDWGKGTLVTVSSGGGGSGGGGSGGGGSQVQLVESGGGLVQPGGSLRLSCEASGFTLDYYGIGWFRQPPGKEREAVSYISASARTILYADSVKGRFTISRDNAKNAVYLQMNSLKREDTAVYYCARRRFSASSVNRWLADDYDVWGRGTQVAVSSGGGSGGGSGGGSGGGSQLQLVETGGGLVQPGGSLRLSCAASGFTFSDYVMTWVRQAPGKGPEWIATINTDGSTMRDDSTKGRFTISRDNAKNTLYLQMTSLKPEDTALYYCARGRVISASAIRGAVRGPGTQVTVSSGGGGSGGGGSGGGGSQVQLVESGGGLVQTGGSLRLSCASSGSIAGFETVTWSRQAPGKSLQWVASMTKTNNEIYSDSVKGRFIISRDNAKNTVYLQMNSLKPEDTGVYFCKGPELRGQGIQVTVSS | 0.002 | 3.57e-06 | 1.79e+06 | – | – | – | – |
| VHH peptide monomer AH3 (VHH, also called VHH AH3) VHH: QVQLVETGGLVQPGGSLRLSCAASGFTLDYSSIGWFRQAPGKEREGVSCISSSGDSTKYADSVKGRFTTSRDNAKNTVYLQMNSLKPDDTAVYYCAAFRATMCGVFPLSPYGKDDWGKGTLVTVSS | – | – | – | – | 32 | 0.00071 | 22000 |
